This passage reports Kd results from patent publication US20220332804A1 (CSL INNOVATION, published 2022).

Positions count from the first letter of the chain named.

As usually defined, the Kd is the constant that tells how readily two partners part at equilibrium. A high value points to lower affinity.

Common to all, as to assay: SPR, mAb captured, C2 mutant analyte;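 note: Anti-C2 mAbs captured on goat anti-human IgG Biacore CM5 chips, alanine or serine C2 surface mutants flowed over at 37 °C, double-referenced sensorgrams fitted to a 1:1 binding model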
On the technique in general: In SPR one partner is held on a chip, and binding of the other changes the refractive index at the surface.

In one experiment the target is T1, human C2 E686A (human, UniProt P06681 21-752).
T1 sequence: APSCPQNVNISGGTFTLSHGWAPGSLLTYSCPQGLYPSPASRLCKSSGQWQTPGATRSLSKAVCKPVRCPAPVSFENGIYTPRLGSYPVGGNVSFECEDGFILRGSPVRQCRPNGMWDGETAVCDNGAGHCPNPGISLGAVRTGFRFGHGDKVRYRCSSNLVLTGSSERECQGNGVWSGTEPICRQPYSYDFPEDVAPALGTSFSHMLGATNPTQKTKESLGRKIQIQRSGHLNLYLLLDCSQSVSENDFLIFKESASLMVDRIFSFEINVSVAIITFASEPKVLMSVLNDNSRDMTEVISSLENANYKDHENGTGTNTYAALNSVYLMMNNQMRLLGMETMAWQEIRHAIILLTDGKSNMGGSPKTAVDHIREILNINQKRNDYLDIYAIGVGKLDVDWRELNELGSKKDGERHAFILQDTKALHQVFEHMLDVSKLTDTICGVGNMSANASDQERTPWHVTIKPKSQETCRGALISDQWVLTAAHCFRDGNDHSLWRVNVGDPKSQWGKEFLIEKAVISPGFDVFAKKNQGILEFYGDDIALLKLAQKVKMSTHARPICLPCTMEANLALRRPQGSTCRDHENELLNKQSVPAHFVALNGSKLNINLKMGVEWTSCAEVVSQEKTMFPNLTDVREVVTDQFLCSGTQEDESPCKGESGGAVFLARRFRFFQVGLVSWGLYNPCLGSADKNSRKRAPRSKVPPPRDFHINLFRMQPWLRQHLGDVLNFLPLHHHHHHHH

For the next experiment, the target named is T2, human C2 V448A (human, UniProt P06681 21-752).
T2 sequence: T1 sequence with V428A, A666E

The target in the next experiment is T3, human C2 M316A (human, UniProt P06681 21-752).
T3 sequence: T1 sequence with M296A, A666E

For another experiment, the target named is T4, human C2 S428A (human, UniProt P06681 21-752).
T4 sequence: T1 sequence with S408A, A666E

B1: RF16-214 (antibody, V domains shown)
VH: EVQLLESGGGLVQPGGSLRLSCAASGFTFSWYQMMWVRQAPGKGLEWVSRIYPSGGGTAYADSVKGRFTISRDNSKNTLYLQMNSLRAEDTAVYYCARDAGYGDNWGQGTLVTVSS
VL: QSALTQPPSVSVSPGQTASITCSGDKLGEKYASWYQQKAGQSPVMVIYQDRKRPSGIPERFSGSNSGNTATLTISGTQAMDEADYYCQAWDTRAVVFGGGTKLTVLG
Consider B1, for which the Kd in the experiment with human C2 E686A is 139 nM; with human C2 V448A, 6.9 nM; with human C2 M316A, 30.2 nM; with human C2 S428A, 58.6 nM.
